Assays:
[1] = target: T1, soluble human αKlotho (recombinant) (human, UniProt Q9UEF7 34-981); test: SPR (ProteOn XPR36), Fab captured by anti-IgG(H+L), human αKlotho injected in serial dilutions, Langmuir fit
T1 construct: also called Hu aKL; recombinant human αKlotho
T1 sequence (looked up): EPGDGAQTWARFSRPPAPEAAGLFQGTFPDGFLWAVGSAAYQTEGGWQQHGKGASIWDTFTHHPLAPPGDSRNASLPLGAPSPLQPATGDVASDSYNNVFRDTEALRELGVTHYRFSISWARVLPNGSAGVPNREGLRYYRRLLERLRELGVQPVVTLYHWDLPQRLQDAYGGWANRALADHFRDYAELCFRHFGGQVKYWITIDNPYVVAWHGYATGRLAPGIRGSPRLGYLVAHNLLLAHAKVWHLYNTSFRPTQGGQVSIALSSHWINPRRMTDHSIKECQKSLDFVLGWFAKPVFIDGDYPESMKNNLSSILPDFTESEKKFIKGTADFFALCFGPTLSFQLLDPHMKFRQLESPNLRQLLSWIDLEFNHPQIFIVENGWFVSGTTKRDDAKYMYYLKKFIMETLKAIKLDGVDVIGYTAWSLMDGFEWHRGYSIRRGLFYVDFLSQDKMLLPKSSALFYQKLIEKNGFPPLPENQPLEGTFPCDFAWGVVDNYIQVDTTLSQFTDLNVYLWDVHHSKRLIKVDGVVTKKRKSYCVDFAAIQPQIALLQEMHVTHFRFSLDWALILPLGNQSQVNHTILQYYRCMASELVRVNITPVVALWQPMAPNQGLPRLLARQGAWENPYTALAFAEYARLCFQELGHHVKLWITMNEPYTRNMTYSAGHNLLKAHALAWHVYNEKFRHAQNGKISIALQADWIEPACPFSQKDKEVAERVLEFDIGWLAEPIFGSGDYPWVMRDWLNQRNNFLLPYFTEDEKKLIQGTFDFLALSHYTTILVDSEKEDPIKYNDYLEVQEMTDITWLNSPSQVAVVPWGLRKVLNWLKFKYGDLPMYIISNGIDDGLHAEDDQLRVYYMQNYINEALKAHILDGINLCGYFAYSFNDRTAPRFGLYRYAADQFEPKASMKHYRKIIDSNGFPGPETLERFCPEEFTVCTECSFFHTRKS
Experimental: (§1) Estimated affinities against human and mouse antigen for select αKlotho Fabs were obtained by surface plasmon resonance on a ProteOn XPR36 (FIG. 17). Fabs were captured using an anti-IgG(H+L) antibody and serial dilutions of αKlotho were injected. Binding curves were fitted to the Langmuir model. (A) Determined Kon, Koff and KD values. (B) and (C) Binding curves for human and mouse antigen respectively.

mouse αKlotho = target: T2, mouse αKlotho (mouse, UniProt O35082 35-982); test: SPR (ProteOn XPR36), Fab captured by anti-IgG(H+L), mouse αKlotho injected in serial dilutions, Langmuir fit
T2 construct: also called Mu aKL
T2 sequence (looked up): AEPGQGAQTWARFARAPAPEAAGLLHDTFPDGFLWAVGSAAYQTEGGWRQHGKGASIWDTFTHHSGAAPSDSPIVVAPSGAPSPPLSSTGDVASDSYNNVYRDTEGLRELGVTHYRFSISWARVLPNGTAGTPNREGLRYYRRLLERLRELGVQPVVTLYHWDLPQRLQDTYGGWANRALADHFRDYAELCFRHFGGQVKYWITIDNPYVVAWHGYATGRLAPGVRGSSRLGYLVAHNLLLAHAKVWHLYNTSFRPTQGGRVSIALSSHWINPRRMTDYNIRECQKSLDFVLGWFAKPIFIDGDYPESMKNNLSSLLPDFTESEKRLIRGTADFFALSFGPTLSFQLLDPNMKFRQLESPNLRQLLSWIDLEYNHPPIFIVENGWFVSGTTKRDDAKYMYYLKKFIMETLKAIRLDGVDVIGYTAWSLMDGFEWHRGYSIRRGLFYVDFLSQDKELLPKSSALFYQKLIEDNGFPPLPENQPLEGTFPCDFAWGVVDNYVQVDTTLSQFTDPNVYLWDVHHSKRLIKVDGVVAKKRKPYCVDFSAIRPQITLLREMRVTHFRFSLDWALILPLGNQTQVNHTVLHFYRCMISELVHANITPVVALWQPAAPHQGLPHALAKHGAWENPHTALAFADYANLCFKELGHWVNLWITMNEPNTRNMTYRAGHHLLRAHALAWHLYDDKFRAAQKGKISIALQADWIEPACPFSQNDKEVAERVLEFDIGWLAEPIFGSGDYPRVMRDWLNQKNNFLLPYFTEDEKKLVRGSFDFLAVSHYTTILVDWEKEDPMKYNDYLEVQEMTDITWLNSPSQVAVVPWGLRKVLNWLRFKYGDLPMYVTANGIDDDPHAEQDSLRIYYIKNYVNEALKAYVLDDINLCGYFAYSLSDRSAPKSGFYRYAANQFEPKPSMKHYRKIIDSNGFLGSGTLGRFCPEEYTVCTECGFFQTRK
Experimental: as §1

- Kd [1]: 1020 pM
- koff [1]: 0.000315 s⁻¹
- kon [1]: 308000 M⁻¹ s⁻¹
- Kd (mouse αKlotho): 784 pM
- koff (mouse αKlotho): 0.000159 s⁻¹
- kon (mouse αKlotho): 202000 M⁻¹ s⁻¹
B1: sb106 Fab (Fab, V domains shown)
VH: EVQLVESGGGLVQPGGSLRLSCAASGFNISYYSIHWVRQAPGKGLEWVAYISPSYGYTSYADSVKGRFTISADTSKNTAYLQMNSLRAEDTAVYYCARYYVYASHGWAGYGMDYWGQGTLVTVSS
VL: DIQMTQSPSSLSASVGDRVTITCRASQSVSSAVAWYQQKPGKAPKLLIYSASSLYSGVPSRFSGSRSGTDFTLTISSLQPEDFATYYCQQAGYSPITFGQGTKVEIKR
notes: also called Fsb106; clone 48

— patent publication US20190041402A1 (GOVERNING COUNCIL OF THE UNIVERSITY OF TORONTO, published 2019)
